# The nanobody polyreactivity screen of Harvey et al. (2022)
# Assay: yeast display, Sf9 membrane polyspecificity reagent, FACS + sequencing; frameworks hold sequencing errors
# In short: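 Genes from sorted yeast were amplified by colony PCR, read by MiSeq 2 × 250 sequencing and filtered on CDR length. These cells carried a synthetic nanobody library in Saccharomyces cerevisiae BJ5465 and were sorted by FACS into low and high (top ~1%) gates on anti-HA and streptavidin fluorescence. Polyreactivity is labelled according to the gate of origin.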
row,Sequence,polyreactivity (PSR sort gate)
1,QVQLVESGGGLVQAGGSLRLSCAASGFTFYSNAMGWYRQAPGKERELVAAISFSGTRTYYADSVKGRFTISRDNAKNTVYLQMNSLKPEDTAVYYCNAVAYNYPRTYDYWGQGTQVTVSS,high polyreactivity
2,QVQLVESGGGLVQAGGSLRLSCAASGNIFNGNAMGWYRQAPGKERELVAAIRGNGGITYYADSVKGRFTISRDNAKNTVYLQMNSLKPEDTAVYYCAVRSAWVYGIGRYYWGQGTQVTVSS,high polyreactivity
3,QVQLVESGGGLVQAAGSLRLSCAASGSIFGPNAMGWYRQAPGKERELVASITLSGGSTYYADSVKGRFTISRDNAKNNVYLQMNSLKPVDTAVYYCNADLLPADAPLWVTGGDYWGQGTQVTVSS,low polyreactivity
4,QVQLVESGGGLVQAGGSLRLTCAASGRTFVTNAMGWYRQAPGKERELVAAISWSGGDTYYADSVKGRFTISRDNAKYTVYLEMNSLKPEDTAVYYCAAYFWGVYFFGMDYWGQGTLVTVSS,low polyreactivity
5,QVQLVESGGGLVQAGGSLRLSCAASGSTYQGYAMGWYRQAPGKERELVAAISGRSGSTYYADSVKGRFTISRDNAKNTVYLEMNSLKQEDTAVYYFNAVTGVNPSLDYWGQGTQVTVSS,high polyreactivity
6,QVQHEESGGGLVQAGGSLRLSCAASGLILFYNDMGWYRQAPGNERELVSVITSGGRTYYADSVKGRFTISRDIAKNTVYLQMNSLKPEDTAVYYCAATYGHPTTYCEGWRYGYWGQGTQVTVSS,low polyreactivity
7,QVQLVESGGGLVQAGGSLRLSCAASGFTFIQYAMGWYRPAPGKERELVAAMTWSGGRTYYADSVKGRFTISRDNAKNTVYLHMNSLKPEDTAVYYCAKPFNIWGQGTKVTVSS,high polyreactivity
8,QVQLVESGGGLVQAGGSLRLSCAASGSIFDYYTMGWYRQAPGKERELVAAITRSGGRTYYADSVKGRFTISRDYAKNTDYLLMNSLKPEDTAVYNCSTGAVSRFGNGPYDFWGQGTQVTVSS,high polyreactivity
9,QVQLVESGGGLVQAGGSLRLSCAASGFTFPDYAMGWYRQAPGKERELVAAISSDCSTYYADSVKGRFTISRDNAKNTVYLQMNSLKPEDTAVYYCAAYVVWLYGYDYWGQGTQVTVSS,low polyreactivity
10,QVQLVESGGGLVQAGGSLRLSCAASGSTYYNAMGWYRQAPGKERELVAAIRFRSGSTYYADSVKGRFTISRDNAKNTVYLQMNSLKPEDTAVYYCAADNKRSWRYAYNYWGQGTQVTVSS,high polyreactivity
11,QVQLVESGGGLVQAGGSLRLSCAASGITFAVYTMGWYSQAPGKERELVAAITGSGGRTYYADSVKGRFTISRDNAKNTVYLQMNSLKPEDTAVYYCNAVQRSSRQTFEYWGQGTQVTVSS,low polyreactivity
12,QVQLVESGGGLVQAGGSLRLSCAASGRTFPGYGMGWYRQAPGKERELVAVITSNGGITYYADSVKGRFTISRDNAKNTVYLQMNSLKPEDTAVYYCAAYEIYYEFDSWGQGTQVTVSS,low polyreactivity
13,QVQLVESGGGLVQAGGSLRLSCAASGITFGYNAMGWYRQAPGKERELVASISYSGDSTYYADSVKGRFTISRDNAKNTVYLQMNSLKPEDTAVYYCNVRNRPGGEINDYDYWGQGTQVTVSS,low polyreactivity
14,QVQLVESGGGLVQAGGSLRLSCAASGFTFYQYAMGWYRQAPGKERELVAAITWNGGSTFYADSVKGRFTISRDNAKNTVYLQMNSLKPEDTAVYYCAARQYFSSYYEYDYWGQGTQVTVSS,high polyreactivity
15,QVQLVESGGGLVQAGGSLRLSCAASGITFVYYVMGWYRQAPGKERELVAAINAGGGSTYYADSVKGRFTISRDNAKNTVYLQMNSLKPEDTAVYYCNARVRVRLGRNWSSYYYWGQGTQVTVSS,high polyreactivity
16,QVQLVESGGGLVQAGGSLRLSCAASGFTFSDHAMGWYRQAPGKERELVAAISRSRGNTHYADSVKGRFTISRDNAKNTVYLQMNSLKPEDTAVYYCNAVQGQGQYEYWGQATQVTVSS,high polyreactivity
17,QVQLEESGGGIVQAGGSLRLSCAASGSTFGVYAMGWYRQAPGKERELVAAISSSTGSTYYADSVKGRFTISRDNAKNTVYLQMNSLKPEYTAVYYCAAAGYGKVRGDYWGQGTQVTVSS,low polyreactivity
18,QVQLVESGGGLVQAGGSLRLSCAASGRTFVYYAMGRYRQAPGKERELVAAISGSGGSTYYADSVKGRFTISRDNAKNTVYLQMISLKPEDTAVYYCAAGPRGRYRYGYWGQGTQVTVSS,high polyreactivity
19,QVQLVESVGGLVEAGGSLRLSCASSGFISSHYAMGWYRQAPGKESELVAAITSGGSTYYADSVKGRFTISRDNAKNTVYLQMNSLKPEDTAVYYCAAYYRRWPRRYDYWGQGTQVTVSS,high polyreactivity
20,QVQLVESGGGLVQAGGSLRLSCAASGIIFDSYALGWYRQAPGKERELVAAITSRGGRTYYAVSVKGRFTISRDNAKNTVYLQMNSLKPEDTAVYYCAARAKYDRRTDGTSGYDYWGQGTQVTVSS,low polyreactivity
21,QVQLVESGGGLVQAGGSLRLSCAASVRIFVYNTMGWYRQAPGKERELVAAINYSGGSTYYADSVKGRFTISRDNAKNTVYLQMNSLKPEDTAVYYCAVKLRSRAGTSYGYWGQGTQVTVSS,high polyreactivity
22,QVQLVESGGGLVQAGGSLRLICAASGSTFAYNYMGWYRQAPGKERELVPDIRSGGNTNYADSVKGRFTISRDNAKNTVYLQMNSLKPEDTAVYYCATDGYRIDVYHPDYRYDYWGQGTQVTVSS,low polyreactivity

row,Sequence,polyreactivity (PSR sort gate)
1,QVQLVESGGGLVQAGGSLRLSCAASVSTFVLYAMGWYRQAPGKERELVAVISWSGGSTYYADSVKGRFTISRDNAKNTVYLQMNSLKPEDTAVYYCAADSTWEGGYKYEYWGQGTQVTVSS,low polyreactivity
2,QVQLVESGGGLVQAGGSLRLSCAASGRTFYLYGMGWYRQAPGKERELVAAITLSDGSTYYADSVKGRFTISRDNAKNTVYLQMKSLKPEDTAVYYCAARDYPFPYAMNYWGQGTQVTVSS,low polyreactivity
3,QVQLVESGGGLVQAGGSLRLSCAASGLTFNYYDRGWYRQAPGKERELVAAISRSRTNTSYADSVKGRFTISRDNAKNTVYLQMNSLKPEDTAVYYCNAAGVYLAAGPYTANFNYNYWGQGTQVTVSS,low polyreactivity
4,QVQLVESGGGLVQAGGSLRISCAASGTFGSNAMGWYRQAPGKERELVAAINSGGTTKYADSVKGRFTISRDNAKNTVYLQMNSLKPEDTAVYYCNAREGVFRYPVAHDYWGQGTQVTVSS,low polyreactivity
5,QVQLVESGGGLVPAGGSLRLSCAASGFTLYRYVMGWYRQAPGKERELVAAITRGGNTNYADSVKGRFTISRDNAKKTVYLQKNSLKPEDTAVYDCARRYRDYGRYGYWGQGTQVTVSS,high polyreactivity
6,QVQLVESGGGLVQAGGSLRLSCAASGFTFWGNAMGWSRQAPVKERELVAAISRSGGRTYYADSVKGRFTISRDNAKNTVYLQMNSLKPEDTAVYYCDAGSSHHFDYEGGYWGQGTQVTVSS,low polyreactivity
7,QVQLVESGGGLVQAGGSLGLSCAASGITFYTYPMGLYRQAPGKERELVAAISRRGGSTYYADSVKGRFTISRDNAKNTVYLHLNSLKPEDTAVYYCNAVADCYSGFDGYYYWGQGTQVTVSS,high polyreactivity
8,QVQLVESGGGLVQAGGSLRLSCAASGFIFERYTMGWYRQAPGKERELVAAISDSGGSTYYADSVKGRFTISRDNAKNTVYLQMNSLKPEDTAVYYCATTQYTTYGRRYYWGQGTQVTVSS,high polyreactivity
9,QVQLVESGGGLVQAGGSLRLSCAASGYTFRHYVMGWYRQAPGKERELVAAITYSGGSTYYADSVKGRFTISRDNAKNTVYLQMNSLKPEDTAVYYCAARRRRSDPYDFWGQGTQVTVSS,high polyreactivity
10,QVQHVESGGGLVQAGGSLRLSCAASGSTFYLYAMGWYRQAPGTERELLAAITYSGDRTRYADSVKGRFTISRDNAKNTVYLQMNSLKPEDTAVYYCAAPYVGARNAYRMCYWGQGTQVTVSS,high polyreactivity
11,QVQLVESGGGLVQAGGSLRLSCAASGSIFYYYAMGWYRQAPGKERELVAAITSGGSTYYADSVKGRFTISRDNAKNTVYYQMNSLIPEDTAVYYCAAVFYAAYLRYVWYSYDYWGQGTQVTVSS,low polyreactivity
12,QVQLVESGGGLVQAGGSLRLSCAAYGRTITYYAMGGYRQSPGKERELVAAIPWSGGSTYYADSVKGRFTISRDNAKNTVYLQMNSLKPEDTAVYYCSADSYIYSVNYWGQGTQLTVSS,low polyreactivity
13,QVQLVESGGGLVQAGGSLRLSCAASGSTFGRSVMGWYRQAPGNVRELVGAISRRGGSTYYADSVKGRFTISRDNAKKTVYIQLHSRKPEDPAVYYSPVDGARSGEPYDSMDYWGQGTHVTVSS,high polyreactivity
14,QVQLVESGGGLVQAGGSLRLSCAASGFTFWYYAMGWYRPAPGNERELVASISRTGGTTYYADSVKGRFTISRDNAKNTVDLQMTSLKPEDTAVYYCNARPKVYDREYDYWGQGTQVTVSS,high polyreactivity
15,QDQLVESWVGLVQAGGSLRLSCAASGTISSYAMGWSRQAPGKERELVASIRYRGGSTYYADSVKGRFTISRDNEKNTVYLQINSLKPEDTAVYYCNAVRVPYVRGAKFEYWGQGTQVTVSS,low polyreactivity
16,QVQLVESGGGLVQAGGSLRLSCAASGSIFDDYAMGWYRQAPGKERELVATITSGDTTNYADSVKGRFTISRDNAKNTVYLQMNSLKPEDTAVYYCAADYLTSRSRTFDYWGQGTQVTVSS,low polyreactivity
17,QVQLVESGGGLVQAGGSLRLSCAASGRIFEYYAMGWYRQAPGKERELVAAINSSGGSTYYADSVKGRFTISRDNAKNTVYLQMNSLKPEDTAVYYCAARSYASPGWRYEYWGQGTQVTVSS,low polyreactivity
18,QVQLVESGGGLVQAGGSLRLSCAASGRIYIDYAMGWYRQAPGKERELVATISESGGSTYYADSVKGRITISRDNAKNTVYLQMNSLKPEDTAVYYCAVDDRSGTVYFYTKFDYWGQGTQVTVSS,low polyreactivity
19,QVQLVESGGGLVQAGGSLRLSCAASGFIFYDYAMGWYRQAPGKERELVAAITVDGGTTYYADSVKGRFTISRDNAKNTVYLQMNSLKPEDTAVYYCAADTYYGFDSNYEYCGQGTQVTVSS,low polyreactivity
20,QVQLVESGGGLVQAGGSLRLSCAASGTMGWYRQAPGKERELVAAISSSDRTSYADSVKGRFTISRDNAKNTVYLQMNSLKPEDTAVYYCNASTVFAWRTTTLKLFYTAHDYWGQGTQVTVSS,low polyreactivity
21,QVQLVESGGGLVQAGGSLRLSCAASGRTFVYYAMGWYRQAPGKERELVAAISSRGGSTYYADSVKGRFTISRDYAKNTVYLQMNSLKPEDTAVYYCAARARRRYYYWGQGTQVTVSA,high polyreactivity
